Results as given in patent publication US20150344570A1 (published 2015).

T1: FcγRIIb (human, UniProt P31994 43-217)
T1 construct: extracellular domain; Soluble extracellular domain with C-terminal His tag, used as analyte in Biacore; also called FcgRIIb; 2b; not shown: His tag attached to the C terminus
T1 sequence (looked up): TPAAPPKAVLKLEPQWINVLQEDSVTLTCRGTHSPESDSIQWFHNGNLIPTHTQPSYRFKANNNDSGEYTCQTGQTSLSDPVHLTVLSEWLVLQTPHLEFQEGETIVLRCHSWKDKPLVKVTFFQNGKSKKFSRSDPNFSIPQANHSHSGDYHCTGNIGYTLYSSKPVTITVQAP

B1: GpH7-B3 variant P271_02A/GpL16-k0 (antibody, human IgG1, kappa)
heavy: not shown
light: DIVMTQSPLSLPVTPGEPASISCQASESLVHSNRNTYLHWYLQKPGQSPQLLIYKVSNRFSGVPDRFSGSGSGTDFTLKISRVEAEDVGVYYCSQNTHVPPTFGQGTKVEIERTVAAPSVFIFPPSDEQLKSGTASVVCLLNNFYPREAKVQWKVDNALQSGNSQESVTEQDSKDSTYSLSSTLTLSKADYEKHKVYACEVTHQGLSSPVTKSFNRGEC
notes: homodimerized IgG1, mutation in both H chains; also called Ho Ab
B2: GpH7-B3 variant I336_04F/GpL16-k0 (antibody, human IgG1, kappa)
heavy: not shown
light: B1 light
notes: as for B1
B3: GpH7-B3 variant E269_15Y/GpL16-k0 (antibody, human IgG1, kappa)
heavy: not shown
light: B1 light
notes: as for B1
B4: GpH7-B3 variant E269_04F/GpL16-k0 (antibody, human IgG1, kappa)
heavy: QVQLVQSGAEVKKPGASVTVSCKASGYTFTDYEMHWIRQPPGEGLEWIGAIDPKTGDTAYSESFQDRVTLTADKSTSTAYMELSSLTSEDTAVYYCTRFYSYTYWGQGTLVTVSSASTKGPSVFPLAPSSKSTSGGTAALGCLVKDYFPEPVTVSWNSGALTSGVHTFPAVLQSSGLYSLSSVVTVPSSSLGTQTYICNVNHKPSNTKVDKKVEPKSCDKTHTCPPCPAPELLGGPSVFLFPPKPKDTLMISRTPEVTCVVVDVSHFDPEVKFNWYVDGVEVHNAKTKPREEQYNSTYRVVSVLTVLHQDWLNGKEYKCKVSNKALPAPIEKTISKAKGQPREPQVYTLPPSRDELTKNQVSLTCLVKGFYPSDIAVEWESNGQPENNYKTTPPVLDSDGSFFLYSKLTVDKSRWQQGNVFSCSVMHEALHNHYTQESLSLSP
light: B1 light
notes: as for B1
B5: GpH7-B3 variant I336_10E/GpL16-k0 (antibody, human IgG1, kappa)
heavy: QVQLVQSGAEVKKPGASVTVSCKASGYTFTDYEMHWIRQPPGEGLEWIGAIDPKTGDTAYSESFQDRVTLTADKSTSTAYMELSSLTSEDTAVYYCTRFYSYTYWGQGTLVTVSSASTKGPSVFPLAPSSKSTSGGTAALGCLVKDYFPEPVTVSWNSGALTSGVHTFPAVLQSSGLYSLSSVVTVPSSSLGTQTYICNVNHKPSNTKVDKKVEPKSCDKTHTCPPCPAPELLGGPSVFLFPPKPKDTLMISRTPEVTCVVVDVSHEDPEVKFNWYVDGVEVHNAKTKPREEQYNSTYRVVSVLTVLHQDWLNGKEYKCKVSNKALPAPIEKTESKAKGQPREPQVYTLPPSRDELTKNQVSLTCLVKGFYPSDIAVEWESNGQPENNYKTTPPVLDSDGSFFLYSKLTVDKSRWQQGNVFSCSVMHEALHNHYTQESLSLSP
light: B1 light
notes: as for B1
B6: GpH7-B3 variant I336_01G/GpL16-k0 (antibody, human IgG1, kappa)
heavy: not shown
light: B1 light
notes: as for B1
B7: GpH7-B3 variant A330_14T/GpL16-k0 (antibody, human IgG1, kappa)
heavy: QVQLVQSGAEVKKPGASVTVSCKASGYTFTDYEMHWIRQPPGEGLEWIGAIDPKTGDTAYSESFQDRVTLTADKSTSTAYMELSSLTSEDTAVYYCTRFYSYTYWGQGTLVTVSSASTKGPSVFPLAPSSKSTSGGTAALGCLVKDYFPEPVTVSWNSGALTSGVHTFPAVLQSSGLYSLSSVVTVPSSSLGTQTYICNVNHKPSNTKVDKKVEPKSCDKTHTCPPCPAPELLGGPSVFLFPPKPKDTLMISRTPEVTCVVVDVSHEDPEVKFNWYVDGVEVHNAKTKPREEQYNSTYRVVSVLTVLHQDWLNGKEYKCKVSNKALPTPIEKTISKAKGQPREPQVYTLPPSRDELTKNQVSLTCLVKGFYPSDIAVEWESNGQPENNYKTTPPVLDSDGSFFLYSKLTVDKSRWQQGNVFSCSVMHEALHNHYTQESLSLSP
light: B1 light
notes: as for B1
B8: GpH7-B3 variant E269_08L/GpL16-k0 (antibody, human IgG1, kappa)
heavy: not shown
light: B1 light
notes: as for B1
B9: GpH7-B3 variant A330_08L/GpL16-k0 (antibody, human IgG1, kappa)
heavy: not shown
light: B1 light
notes: as for B1
B10: GpH7-B3 variant G236_20W/GpL16-k0 (antibody, human IgG1, kappa)
heavy: not shown
light: B1 light
notes: as for B1
B11: GpH7-B3 variant I336_18N/GpL16-k0 (antibody, human IgG1, kappa)
heavy: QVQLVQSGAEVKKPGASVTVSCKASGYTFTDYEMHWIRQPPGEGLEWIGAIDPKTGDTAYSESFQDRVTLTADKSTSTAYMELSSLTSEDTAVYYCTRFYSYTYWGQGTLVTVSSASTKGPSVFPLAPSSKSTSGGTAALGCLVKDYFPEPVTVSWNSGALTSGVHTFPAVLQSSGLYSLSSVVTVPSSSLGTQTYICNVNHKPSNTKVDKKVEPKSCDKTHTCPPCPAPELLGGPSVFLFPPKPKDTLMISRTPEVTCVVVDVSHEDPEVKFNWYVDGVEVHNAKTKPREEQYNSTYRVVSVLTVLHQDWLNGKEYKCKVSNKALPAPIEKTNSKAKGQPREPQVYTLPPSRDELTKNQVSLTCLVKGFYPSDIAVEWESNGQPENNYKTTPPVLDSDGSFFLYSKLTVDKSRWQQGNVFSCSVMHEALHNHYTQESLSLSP
light: B1 light
notes: as for B1
B12: GpH7-B3 variant E333_13S/GpL16-k0 (antibody, human IgG1, kappa)
heavy: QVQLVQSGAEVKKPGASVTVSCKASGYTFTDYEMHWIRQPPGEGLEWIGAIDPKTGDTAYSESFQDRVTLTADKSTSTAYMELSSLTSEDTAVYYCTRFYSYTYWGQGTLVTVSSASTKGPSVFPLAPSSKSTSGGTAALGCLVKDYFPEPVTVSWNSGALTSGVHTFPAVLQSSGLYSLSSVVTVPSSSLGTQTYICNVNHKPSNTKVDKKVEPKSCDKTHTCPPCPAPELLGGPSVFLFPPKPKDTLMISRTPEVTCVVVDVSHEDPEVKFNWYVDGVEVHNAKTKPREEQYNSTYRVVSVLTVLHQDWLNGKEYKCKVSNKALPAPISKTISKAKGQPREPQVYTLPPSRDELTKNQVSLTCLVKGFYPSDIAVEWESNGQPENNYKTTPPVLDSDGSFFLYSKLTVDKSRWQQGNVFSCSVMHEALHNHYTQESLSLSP
light: B1 light
notes: as for B1
B13: GpH7-B3 variant E269_06M/GpL16-k0 (antibody, human IgG1, kappa)
heavy: not shown
light: B1 light
notes: as for B1
B14: GpH7-B3 variant E333_01G/GpL16-k0 (antibody, human IgG1, kappa)
heavy: not shown
light: B1 light
notes: as for B1
B15: GpH7-B3 variant I336_02A/GpL16-k0 (antibody, human IgG1, kappa)
heavy: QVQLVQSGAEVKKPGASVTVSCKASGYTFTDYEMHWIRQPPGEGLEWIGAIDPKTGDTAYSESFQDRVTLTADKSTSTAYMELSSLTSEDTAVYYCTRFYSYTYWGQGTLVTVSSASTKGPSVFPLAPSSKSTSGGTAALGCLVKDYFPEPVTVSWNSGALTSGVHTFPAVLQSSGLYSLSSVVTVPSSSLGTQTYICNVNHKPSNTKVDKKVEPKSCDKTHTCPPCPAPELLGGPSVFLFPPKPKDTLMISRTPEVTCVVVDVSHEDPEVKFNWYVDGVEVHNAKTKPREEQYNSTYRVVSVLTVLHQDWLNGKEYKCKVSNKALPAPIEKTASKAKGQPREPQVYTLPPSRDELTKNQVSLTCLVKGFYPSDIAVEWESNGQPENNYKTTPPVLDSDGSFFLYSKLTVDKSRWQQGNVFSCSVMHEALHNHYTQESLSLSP
light: B1 light
notes: as for B1
B16: GpH7-B3 variant A327_09D/GpL16-k0 (antibody, human IgG1, kappa)
heavy: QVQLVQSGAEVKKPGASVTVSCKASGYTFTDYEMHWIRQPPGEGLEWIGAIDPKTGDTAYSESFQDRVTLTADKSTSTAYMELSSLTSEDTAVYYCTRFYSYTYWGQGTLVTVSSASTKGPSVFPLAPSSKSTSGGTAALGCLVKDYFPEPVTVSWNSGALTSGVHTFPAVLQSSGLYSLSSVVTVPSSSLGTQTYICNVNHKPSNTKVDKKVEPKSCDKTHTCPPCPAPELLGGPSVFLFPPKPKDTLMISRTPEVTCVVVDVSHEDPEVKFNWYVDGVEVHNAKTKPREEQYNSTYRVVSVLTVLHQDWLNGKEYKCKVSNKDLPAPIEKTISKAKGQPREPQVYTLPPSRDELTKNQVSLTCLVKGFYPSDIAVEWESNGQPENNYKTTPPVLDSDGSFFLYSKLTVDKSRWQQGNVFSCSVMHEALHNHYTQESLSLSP
light: B1 light
notes: as for B1
B17: GpH7-B3 variant K326_14T/GpL16-k0 (antibody, human IgG1, kappa)
heavy: not shown
light: B1 light
notes: as for B1
B18: GpH7-B3 variant K326_15Y/GpL16-k0 (antibody, human IgG1, kappa)
heavy: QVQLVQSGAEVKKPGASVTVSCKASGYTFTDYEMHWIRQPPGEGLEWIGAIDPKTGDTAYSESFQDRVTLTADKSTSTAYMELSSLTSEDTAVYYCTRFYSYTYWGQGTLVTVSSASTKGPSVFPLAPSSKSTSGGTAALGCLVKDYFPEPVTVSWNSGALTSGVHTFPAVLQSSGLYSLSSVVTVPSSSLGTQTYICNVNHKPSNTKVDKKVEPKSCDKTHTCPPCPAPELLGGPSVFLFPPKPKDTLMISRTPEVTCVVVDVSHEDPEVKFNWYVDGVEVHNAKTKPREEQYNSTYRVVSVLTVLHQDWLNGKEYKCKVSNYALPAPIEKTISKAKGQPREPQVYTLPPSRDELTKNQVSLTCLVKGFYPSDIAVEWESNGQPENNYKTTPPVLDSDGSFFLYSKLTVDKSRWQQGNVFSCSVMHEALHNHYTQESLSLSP
light: B1 light
notes: as for B1
B19: GpH7-B3 variant A330_09D/GpL16-k0 (antibody, human IgG1, kappa)
heavy: not shown
light: B1 light
notes: as for B1
B20: GpH7-B3 variant I336_06M/GpL16-k0 (antibody, human IgG1, kappa)
heavy: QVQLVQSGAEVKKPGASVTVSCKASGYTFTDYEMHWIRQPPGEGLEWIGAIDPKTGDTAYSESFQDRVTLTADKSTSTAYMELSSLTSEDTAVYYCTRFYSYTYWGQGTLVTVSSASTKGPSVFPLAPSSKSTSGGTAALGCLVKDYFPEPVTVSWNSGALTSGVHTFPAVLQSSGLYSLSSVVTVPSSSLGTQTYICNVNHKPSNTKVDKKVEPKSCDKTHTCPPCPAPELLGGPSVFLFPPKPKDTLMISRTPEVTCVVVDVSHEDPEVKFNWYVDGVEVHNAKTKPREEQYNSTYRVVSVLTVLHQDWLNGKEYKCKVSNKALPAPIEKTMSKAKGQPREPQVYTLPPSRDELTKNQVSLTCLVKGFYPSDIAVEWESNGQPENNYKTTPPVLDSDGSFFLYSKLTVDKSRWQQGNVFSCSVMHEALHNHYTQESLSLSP
light: B1 light
notes: as for B1
B21: GpH7-B3 variant I336_03V/GpL16-k0 (antibody, human IgG1, kappa)
heavy: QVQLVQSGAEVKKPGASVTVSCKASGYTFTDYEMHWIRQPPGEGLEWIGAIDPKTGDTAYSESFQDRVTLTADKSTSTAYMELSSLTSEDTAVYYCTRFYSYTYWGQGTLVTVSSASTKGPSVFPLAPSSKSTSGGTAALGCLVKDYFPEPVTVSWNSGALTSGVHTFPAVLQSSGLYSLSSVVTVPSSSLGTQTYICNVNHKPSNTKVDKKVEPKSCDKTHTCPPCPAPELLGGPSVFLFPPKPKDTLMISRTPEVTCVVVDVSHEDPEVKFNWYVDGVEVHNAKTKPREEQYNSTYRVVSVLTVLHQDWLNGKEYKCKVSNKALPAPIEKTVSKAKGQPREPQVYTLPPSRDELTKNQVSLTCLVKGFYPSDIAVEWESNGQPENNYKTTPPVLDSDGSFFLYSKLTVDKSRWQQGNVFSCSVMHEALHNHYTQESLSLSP
light: B1 light
notes: as for B1
B22: GpH7-A5/GpH7-B3 variant N325_03V/GpL16-k0 (antibody, human IgG1, kappa)
heavy 1: not shown
heavy 2: not shown
light: B1 light
notes: Heterodimerized anti-glypican-3 IgG1; alteration in the GpH7-B3 chain only; also called He Ab
B23: GpH7-A5/GpH7-B3 variant N325_04F/GpL16-k0 (antibody, human IgG1, kappa)
heavy 1: not shown
heavy 2: not shown
light: B1 light
notes: as for B22
B24: GpH7-A5/GpH7-B3 variant P331_07I/GpL16-k0 (antibody, human IgG1, kappa)
heavy 1: not shown
heavy 2: not shown
light: B1 light
notes: as for B22
B25: GpH7-A5/GpH7-B3 variant N325_09D/GpL16-k0 (antibody, human IgG1, kappa)
heavy 1: not shown
heavy 2: not shown
light: B1 light
notes: as for B22
B26: GpH7-A5/GpH7-B3 variant S239_07I/GpL16-k0 (antibody, human IgG1, kappa)
heavy 1: not shown
heavy 2: not shown
light: B1 light
notes: as for B22
B27: GpH7-A5/GpH7-B3 variant P331_03V/GpL16-k0 (antibody, human IgG1, kappa)
heavy 1: not shown
heavy 2: not shown
light: B1 light
notes: as for B22
B28: GpH7-A5/GpH7-B3 variant N325_07I/GpL16-k0 (antibody, human IgG1, kappa)
heavy 1: not shown
heavy 2: not shown
light: B1 light
notes: as for B22
B29: GpH7-A5/GpH7-B3 variant N325_08L/GpL16-k0 (antibody, human IgG1, kappa)
heavy 1: not shown
heavy 2: not shown
light: B1 light
notes: as for B22
B30: GpH7-A5/GpH7-B3 variant S239_06M/GpL16-k0 (antibody, human IgG1, kappa)
heavy 1: not shown
heavy 2: not shown
light: B1 light
notes: as for B22
B31: GpH7-A5/GpH7-B3 variant S267_07I/GpL16-k0 (antibody, human IgG1, kappa)
heavy 1: not shown
heavy 2: not shown
light: B1 light
notes: as for B22
B32: GpH7-A5/GpH7-B3 variant N325_06M/GpL16-k0 (antibody, human IgG1, kappa)
heavy 1: not shown
heavy 2: not shown
light: B1 light
notes: as for B22
B33: GpH7-A5/GpH7-B3 variant V266_08L/GpL16-k0 (antibody, human IgG1, kappa)
heavy 1: not shown
heavy 2: not shown
light: B1 light
notes: as for B22
B34: GpH7-A5/GpH7-B3 variant S239_05P/GpL16-k0 (antibody, human IgG1, kappa)
heavy 1: not shown
heavy 2: not shown
light: B1 light
notes: as for B22
B35: GpH7-A5/GpH7-B3 variant P238_20W/GpL16-k0 (antibody, human IgG1, kappa)
heavy 1: not shown
heavy 2: not shown
light: B1 light
notes: as for B22
B36: GpH7-A5/GpH7-B3 variant P331_06M/GpL16-k0 (antibody, human IgG1, kappa)
heavy 1: not shown
heavy 2: not shown
light: B1 light
notes: as for B22
B37: GpH7-A5/GpH7-B3 variant P238_16H/GpL16-k0 (antibody, human IgG1, kappa)
heavy 1: not shown
heavy 2: not shown
light: B1 light
notes: as for B22
B38: GpH7-A5/GpH7-B3 variant N325_20W/GpL16-k0 (antibody, human IgG1, kappa)
heavy 1: not shown
heavy 2: not shown
light: B1 light
notes: as for B22
B39: GpH7-A5/GpH7-B3 variant N325_13S/GpL16-k0 (antibody, human IgG1, kappa)
heavy 1: not shown
heavy 2: not shown
light: B1 light
notes: as for B22
B40: GpH7-A5/GpH7-B3 variant P238_19Q/GpL16-k0 (antibody, human IgG1, kappa)
heavy 1: not shown
heavy 2: not shown
light: B1 light
notes: as for B22
B41: GpH7-A5/GpH7-B3 variant P331_04F/GpL16-k0 (antibody, human IgG1, kappa)
heavy 1: not shown
heavy 2: not shown
light: B1 light
notes: as for B22
B42: GpH7-A5/GpH7-B3 variant S239_03V/GpL16-k0 (antibody, human IgG1, kappa)
heavy 1: not shown
heavy 2: not shown
light: B1 light
notes: as for B22
B43: GpH7-A5/GpH7-B3 variant P331_10E/GpL16-k0 (antibody, human IgG1, kappa)
heavy 1: not shown
heavy 2: not shown
light: B1 light
notes: as for B22
B44: GpH7-A5/GpH7-B3 variant P331_15Y/GpL16-k0 (antibody, human IgG1, kappa)
heavy 1: not shown
heavy 2: not shown
light: B1 light
notes: as for B22
B45: GpH7-A5/GpH7-B3 variant V266_07I/GpL16-k0 (antibody, human IgG1, kappa)
heavy 1: not shown
heavy 2: not shown
light: B1 light
notes: as for B22
B46: GpH7-A5/GpH7-B3 variant S324_06M/GpL16-k0 (antibody, human IgG1, kappa)
heavy 1: not shown
heavy 2: not shown
light: B1 light
notes: as for B22

What follows are binders tested against T2, FcγRIa (human, UniProt P12314 16-292) (assay: SPR (Biacore), captured antibody, FcγRIa analyte; relative to HoCon Ab GpH7-B3/GpL16-k0 = 100).
T2 construct: extracellular domain; soluble extracellular domain with C-terminal His tag, expressed in FreeStyle293 cells; also called FcgRI; FcgRIa
T2 sequence (P12314 16-292): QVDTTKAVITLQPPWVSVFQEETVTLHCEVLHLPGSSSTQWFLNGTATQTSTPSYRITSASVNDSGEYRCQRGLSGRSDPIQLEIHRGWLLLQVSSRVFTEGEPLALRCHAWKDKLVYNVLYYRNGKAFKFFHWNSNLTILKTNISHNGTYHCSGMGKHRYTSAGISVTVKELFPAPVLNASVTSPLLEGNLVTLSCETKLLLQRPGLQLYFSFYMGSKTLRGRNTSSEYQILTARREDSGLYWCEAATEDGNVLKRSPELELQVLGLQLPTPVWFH

Row | Ho/Con_1a | Binder
1 | 102 % of control | B1
2 | 104 % of control | B2
3 | 100 % of control | B3
4 | 102 % of control | B4
5 | 107 % of control | B5
6 | 104 % of control | B6
7 | 105 % of control | B7
8 | 101 % of control | B8
9 | 106 % of control | B9
10 | 104 % of control | B10
11 | 104 % of control | B11
12 | 101 % of control | B12
13 | 101 % of control | B13
14 | 100 % of control | B14
15 | 103 % of control | B15
16 | 102 % of control | B16
17 | 103 % of control | B17
18 | 101 % of control | B18
19 | 108 % of control | B19
20 | 104 % of control | B20
21 | 105 % of control | B21

What follows are binders tested against T1, FcγRIIb (assay: SPR (Biacore), antibody captured, FcγR as analyte; relative to GpH7-A5/GpH7-B3/GpL16-k0 = 100).
Description: (§1) The heterodimerized antibodies He Abs in which one of the H chains was introduced with an alteration were assayed for their binding activities to each activating FcγR and inhibitory FcγR according to the method described in Example 4. […] The activating FcγRs in FIGS. 26, 27, 28, and 29 are FcγRIa, FcγRIIa (R), FcγRIIa (H), and FcγRIIIa, respectively.
(§2) Analysis of interaction between objective antibody and the FcγR was carried out using Biacore T100 (GE Healthcare). HBS-EP+ (GE Healthcare) was used as the running buffer, and the measurement temperature was set to 25° C. Chips produced by immobilizing the antigen peptide by the amine coupling method to a Series S Sencor Chip CM5 (GE Healthcare), or alternatively, chips produced by allowing preliminarily biotinylated antigen peptides to interact with and immobilize onto a Series S Sensor Chip SA (certified) (GE Healthcare) were used. Antibodies of interest were captured onto an antigen peptide-immobilized chip, and allowed to interact to each FcγR diluted with running buffer. To regenerate and repeatedly use the chip, the antibodies captured on the chip were washed off by reacting 10 mM glycine-HCl, pH 1.5.

Row | He/Con_2b | Binder
22 | 111 % of control (=100) | B22
23 | 143 % of control (=100) | B23
24 | 114 % of control (=100) | B24
25 | 124 % of control (=100) | B25
26 | 107 % of control (=100) | B26
27 | 119 % of control (=100) | B27
28 | 171 % of control (=100) | B28
29 | 197 % of control (=100) | B29
30 | 101 % of control (=100) | B30
31 | 192 % of control (=100) | B31
32 | 217 % of control (=100) | B32
33 | 236 % of control (=100) | B33
34 | 102 % of control (=100) | B34
35 | 123 % of control (=100) | B35
36 | 102 % of control (=100) | B36
37 | 115 % of control (=100) | B37
38 | 169 % of control (=100) | B38
39 | 177 % of control (=100) | B39
40 | 110 % of control (=100) | B40
41 | 110 % of control (=100) | B41
42 | 108 % of control (=100) | B42
43 | 116 % of control (=100) | B43
44 | 114 % of control (=100) | B44
45 | 152 % of control (=100) | B45
46 | 112 % of control (=100) | B46

Each binder was assayed against T3, FcγRIa (human, UniProt P12314 16-292) in the same assay as above.
T3 construct: extracellular domain; Soluble extracellular domain with C-terminal His tag, used as analyte in Biacore; also called FcgRI; 1a; not shown: His tag attached to the C terminus
Description: as §1, §2
T3 sequence (P12314 16-292): as above

Row | He/Con_1a | Binder
47 | 95.6 % of control (=100) | B22
48 | 93.2 % of control (=100) | B23
49 | 93.4 % of control (=100) | B24
50 | 99.9 % of control (=100) | B25
51 | 97.8 % of control (=100) | B26
52 | 92 % of control (=100) | B27
53 | 94.8 % of control (=100) | B28
54 | 97.5 % of control (=100) | B29
55 | 99 % of control (=100) | B30
56 | 100 % of control (=100) | B31
57 | 97.6 % of control (=100) | B32
58 | 98.1 % of control (=100) | B33
59 | 85.3 % of control (=100) | B34
60 | 99.9 % of control (=100) | B35
61 | 93.6 % of control (=100) | B36
62 | 96 % of control (=100) | B37
63 | 93.8 % of control (=100) | B38
64 | 96.8 % of control (=100) | B39
65 | 97.6 % of control (=100) | B40
66 | 95.5 % of control (=100) | B41
67 | 95.9 % of control (=100) | B42
68 | 95 % of control (=100) | B43
69 | 96 % of control (=100) | B44
70 | 99.3 % of control (=100) | B45
71 | 99.2 % of control (=100) | B46
